Test results reported in patent US20220177564A1 (Ablynx, published 2022).
Where two headings read alike, the source gives them in different places.

How the values were obtained:
cyno TSLP [1] = molecular target: T1, cyno TSLP (cynomolgus monkey, UniProt A0A7N9CAT7 29-159); assay: SPR, cyno TSLP
T1 construct: also called cynomolgus monkey TSLP

human TSLP [2] = molecular target: T2, human TSLP (human, UniProt Q969D9 29-159); assay: SPR, hTSLP
T2 construct: also called hTSLP; hTSP

human TSLP [3] = molecular target: T2, human TSLP; assay: AlphaScreen; hTSLP:hTSLPR:hIL7Rα ternary complex
human TSLP [4] = molecular target: T2, human TSLP; assay: AlphaScreen, purified ISVD; hTSLP:hTSLPR:hIL7Rα ternary complex
cyno TSLP-Fc [5] = molecular target: T3, cyno TSLP-Fc (cynomolgus monkey, UniProt A0A7N9CAT7 29-159); assay: SPR (BIAcore T100), Fc fusion captured by anti-huIgG
T3 construct: also called cyno TSLP-hFc; not shown: human Fc part and any linker not described

hTSLP-Fc [6] = molecular target: T4, hTSLP-Fc (human, UniProt Q969D9 29-159); assay: as above
T4 construct: also called hTSLP-hFc; hTLSP-Fc; not shown: human Fc part and any linker not described

cyno TSLP-Fc [7] = molecular target: T3, cyno TSLP-Fc; assay: SPR (ProteOn XPR36), periplasmic extract over immobilised Fc fusion
hTSLP-Fc [8] = molecular target: T4, hTSLP-Fc; assay: as above
cyno TSLP-Fc [9] = molecular target: T3, cyno TSLP-Fc; assay: cell-based or functional assay
hTSLP-Fc [10] = molecular target: T4, hTSLP-Fc; assay: cell-based or functional assay
human TSLP [11] = molecular target: T2, human TSLP; assay: AlphaScreen, purified ISVD; hTSLP to hTSLPR
human IL-13 [12] = molecular target: T5, human IL-13 (human, UniProt P35225 35-146, limits assumed); assay: cell-based or functional assay
human IL-13 [13] = molecular target: T5, human IL-13; assay: AlphaScreen; hIL-13:hIL-13Rα1:hIL4Rα ternary complex
human TSLP [14] = molecular target: T2, human TSLP; assay: SPR, hTSLP; remark: listed apart in the source
hTSLP-Fc [15] = molecular target: T4, hTSLP-Fc; assay: SPR, hTSLP-hFc
cyno TSLP-Fc [16] = molecular target: T3, cyno TSLP-Fc; assay: SPR; the KD column is on cyno TSLP-hFc
cyno TSLP-Fc [17] = molecular target: T3, cyno TSLP-Fc; assay: SPR, cyno TSLP-hFc
cyno TSLP [18] = molecular target: T1, cyno TSLP; assay: SPR, cyno TSLP; remark: listed apart in the source
cyno IL-13 [19] = molecular target: T6, cyno IL-13 (cynomolgus monkey, UniProt Q0PW92 21-132); assay: cell-based or functional assay
human IL-13 [20] = molecular target: T5, human IL-13; assay: cell-based or functional assay; remark: listed apart in the source
human IL-13 [21] = molecular target: T5, human IL-13; assay: AlphaScreen; hIL-13 to hIL-13Rα1-hFc
cyno IL-13 [22] = molecular target: T6, cyno IL-13; assay: cell-based or functional assay; remark: listed apart in the source
human IL-13 [23] = molecular target: T5, human IL-13; assay: AlphaScreen, purified ISVD; hIL-13 to hIL-13Rα1-hFc
cyno IL13-Fc = molecular target: T7, cyno IL13-Fc (cynomolgus monkey, UniProt Q0PW92 11-132); assay: SPR (ProteOn XPR36), periplasmic extract over immobilised Fc fusion
T7 construct: not shown: Fc part and any linker not described

hIL13-Fc = molecular target: T8, hIL13-Fc (human, UniProt P35225 25-146); assay: as above
T8 construct: not shown: Fc part and any linker not described

human IL-13 [24] = molecular target: T5, human IL-13; assay: AlphaScreen, purified ISVD; hIL-13:hIL-13Rα1:hIL4Rα ternary complex
human IL-13 [25] = molecular target: T5, human IL-13; assay: SPR, hIL-13
human IL-13 [26] = molecular target: T5, human IL-13; assay: cell-based or functional assay; remark: listed apart in the source
human IL-13 [27] = molecular target: T5, human IL-13; assay: SPR, hIL-13 from Peprotech (cat nr 200-13)
human IL-13 [28] = molecular target: T5, human IL-13; assay: cell-based or functional assay; remark: listed apart in the source
human IL-13 [29] = molecular target: T5, human IL-13; assay: SPR, hIL-13 from Peprotech (cat nr 200-13); remark: listed apart in the source

B1: F010704076 (VHH)
VHH: EVQLVESGGGLVQPGGSLRLSCAASGSGFGVNILYWYRQAAGIERELIASITSGGITNYVDSVKGRFTISRDNSENTMYLQMNSLRAEDTGVYYCASRNIFDGTTEWGQGTLVTVSS
notes: E. coli, IMAC; also called F0107501A02 (A14P, E16G, A74S, K83R)
koff (cyno TSLP [1]): 0.0016 s⁻¹ | koff (human TSLP [2]): 6.2e-05 s⁻¹ | IC50 (human TSLP [3]): 0.27 nM

B2: F0107501A02 (VHH)
VHH: EVQLVESGGGLVQAGESLRLSCAASGSGFGVNILYWYRQAAGIERELIASITSGGITNYVDSVKGRFTISRDNAENTMYLQMNSLKAEDTGVYYCASRNIFDGTTEWGQGTLVTVSS
notes: Wild-type anti-TSLP ISVD; not shown: c-myc, His6 tag of the purified protein
IC50 (human TSLP [4]): 0.35 nM | Kd (cyno TSLP-Fc [5]): 25 nM | koff (cyno TSLP-Fc [5]): 0.0018 s⁻¹ | kon (cyno TSLP-Fc [5]): 73000 M⁻¹ s⁻¹ | Kd (hTSLP-Fc [6]): 0.51 nM | koff (hTSLP-Fc [6]): 5.7e-05 s⁻¹ | kon (hTSLP-Fc [6]): 110000 M⁻¹ s⁻¹ | koff (cyno TSLP [1]): 0.0015 s⁻¹ | koff (cyno TSLP-Fc [7]): 0.00066 s⁻¹ | koff (hTSLP-Fc [8]): 3.6e-05 s⁻¹ | koff (human TSLP [2]): 5.4e-05 s⁻¹ | IC50, TSLP-induced BaF3 cell proliferation assay (cyno TSLP-Fc [9]): > 1000 nM | IC50, TSLP-induced BaF3 cell proliferation assay (hTSLP-Fc [10]): > 1000 nM | IC50 (human TSLP [11]): 0.3 nM | IC50 (human TSLP [3]): 0.28 nM

B3: F027400160 (VHH)
VHH: EVQLVESGGGVVQPGGSLRLSCAASGSGFGVNILYWYRQAAGIERELIASITSGGITNYVDSVKGRFTISRDNSENTMYLQMNSLRAEDTGLYYCASRNIFDGTTEWGQGTLVTVSS
notes: E. coli, IMAC; also called F0107501A02 (L11V, A14P, E16G, A74S, K83R, V89L)
koff (cyno TSLP [1]): 0.0043 s⁻¹ | koff (human TSLP [2]): 0.00012 s⁻¹

B4: F010700031 (VHH)
chain: EVQLVESGGGLVQPGGSLRLSCAASGFTFNNYAMKWVRQAPGKGLEWVSSITTGGGSTDYADSVKGRFTISRDNRKNTLYLQMNSLKPEDTAVYYCANVPFGYYSEHFSGLSFDYRGQGTLVTVSSGGGGSGGGGSGGGGSGGGGSGGGGSGGGGSGGGGSEVQLVESGGGLVQPGGSLRLSCAASGFTFNNYAMKWVRQAPGKGLEWVSSITTGGGSTDYADSVKGRFTISRDNRKNTLYLQMNSLKPEDTAVYYCANVPFGYYSEHFSGLSFDYRGQGTLVTVSS
notes: Bivalent anti-IL-13 construct of two VHHs, Pichia pastoris, FLAG3-HIS6-tagged; also called F0107004B06-35GS-F0107004B06; not shown: FLAG3-HIS6 tag
IC50, TF1 proliferation assay, 200 pM hIL13 (human IL-13 [12]): 1e-07 M | % inhibition (human IL-13 [13]): 99% | IC50 (human IL-13 [13]): 0.66 nM

B5: F010704099 (VHH)
VHH: EVQLVESGGGLVQPGGSLRLSCAASGFTFADYDYDIGWFRQAPGKEREGVSCISNRDGSTYYADSVKGRFTISRDNSKNTVYLQMNSLRPEDTAVYYCAVEIHCDDYGVENFDFDPWGQGTLVTVSS
notes: E. coli, IMAC; also called F0107529F10 (A14P, T60A, S71R, A74S, S79Y, K83R)
koff (human TSLP [14]): 7.7e-05 s⁻¹ | Kd (hTSLP-Fc [15]): 0.038 nM | fold lower affinity against parental ISVD F0107529F10 (cyno TSLP-Fc [16]): 2 fold | Kd (cyno TSLP-Fc [17]): 3.3 nM | koff (cyno TSLP [18]): 0.0018 s⁻¹

B6: F010700029 (bispecific antibody)
chain: EVQLVESGGGLVQAGGSLRLSCAASGRTFSSYRMGWFRQAPGKEREFVAALSGDGYSTYTANSVNSRFTISRDNAKNTVYLQMNSLKPEDTAIYYCAAKLQYVSGWSYDYPYWGQGTLVTVSSGGGGSGGGGSGGGGSGGGGSGGGGSGGGGSGGGGSEVQLVESGGGLVQPGGSLRLSCAASGFTFNNYAMKWVRQAPGKGLEWVSSITTGGGSTDYADSVKGRFTISRDNRKNTLYLQMNSLKPEDTAVYYCANVPFGYYSEHFSGLSFDYRGQGTLVTVSS
notes: Biparatopic anti-IL-13 construct of two VHHs, Pichia pastoris, FLAG3-HIS6-tagged; also called F0107004B02-35GS-F0107004B06; not shown: FLAG3-HIS6 tag
IC50, IL-13 induced A549 eotaxin release assay (cyno IL-13 [19]): 0.15 nM | IC50, IL-13 induced A549 eotaxin release assay (human IL-13 [20]): 0.21 nM | % inhibition (human IL-13 [21]): 99% | IC50 (human IL-13 [21]): 0.31 nM | IC50, TF1 proliferation assay, 200 pM cyno IL13 (cyno IL-13 [22]): 2.5e-10 M | IC50, TF1 proliferation assay, 200 pM hIL13 (human IL-13 [12]): 2e-11 M | % inhibition (human IL-13 [13]): 100% | IC50 (human IL-13 [13]): 3 nM

B7: F010700003 (bispecific antibody)
chain: EVQLVESGGGLVQPGGSLRLSCAASGFTFNNYAMKWVRQAPGKGLEWVSSITTGGGSTDYADSVKGRFTISRDNRKNTLYLQMNSLKPEDTAVYYCANVPFGYYSEHFSGLSFDYRGQGTLVTVSSGGGGSGGGGSGGGGSGGGGSGGGGSGGGGSGGGGSEVQLVESGGGLVQAGGSLRLSCAASGRTFSSYRMGWFRQAPGKEREFVAALSGDGYSTYTANSVNSRFTISRDNAKNTVYLQMNSLKPEDTAIYYCAAKLQYVSGWSYDYPYWGQGTLVTVSS
notes: Biparatopic anti-IL-13 construct of two VHHs, expressed in Pichia pastoris as FLAG3-HIS6-tagged protein; also called F0107004B06-35GS-F0107004B02; not shown: FLAG3-HIS6 tag
% inhibition (human IL-13 [21]): 99% | IC50 (human IL-13 [21]): 0.13 nM | IC50, TF1 proliferation assay, 200 pM hIL13 (human IL-13 [12]): 1.2e-08 M | % inhibition (human IL-13 [13]): 100% | IC50 (human IL-13 [13]): 3.4 nM

B8: F010700014 (VHH)
chain: EVQLVESGGGLVQAGGSLRLSCAASGRTFSSYRMGWFRQAPGKEREFVAALSGDGYSTYTANSVNSRFTISRDNAKNTVYLQMNSLKPEDTAIYYCAAKLQYVSGWSYDYPYWGQGTLVTVSSGGGGSGGGGSGGGGSGGGGSGGGGSGGGGSGGGGSEVQLVESGGGLVQAGGSLRLSCAASGRTFSSYRMGWFRQAPGKEREFVAALSGDGYSTYTANSVNSRFTISRDNAKNTVYLQMNSLKPEDTAIYYCAAKLQYVSGWSYDYPYWGQGTLVTVSS
notes: Bivalent anti-IL-13 construct of two VHHs, Pichia pastoris, FLAG3-HIS6-tagged; also called F0107004B02-35GS-F0107004B02; not shown: FLAG3-HIS6 tag
% inhibition (human IL-13 [21]): 84% | IC50 (human IL-13 [21]): 0.27 nM | IC50, TF1 proliferation assay, 200 pM hIL13 (human IL-13 [12]): 9.4e-08 M | % inhibition (human IL-13 [13]): 98% | IC50 (human IL-13 [13]): 4.8 nM

B9: F0107004B06 (VHH)
VHH: EVQLVESGGGLVQPGGSLRLSCAASGFTFNNYAMKWVRQAPGKGLEWVSSITTGGGSTDYADSVKGRFTISRDNRKNTLYLQMNSLKPEDTAVYYCANVPFGYYSEHFSGLSFDYRGQGTLVTVSS
notes: Wild-type anti-IL-13 ISVD; also called F010704B06; F107004B06; not shown: c-myc, His6 tag of the purified protein
IC50 (human IL-13 [23]): 61 nM | koff (cyno IL13-Fc): 0.0089 s⁻¹ | koff (hIL13-Fc): 0.0063 s⁻¹ | IC50 (human IL-13 [24]): 6.7 nM | Kd (human IL-13 [25]): 26 nM | koff (human IL-13 [25]): 0.0033 s⁻¹ | kon (human IL-13 [25]): 250000 M⁻¹ s⁻¹ | IC50, IL-13-induced TF-1 proliferation assay (human IL-13 [26]): 10000 nM

B10: F027100183 (VHH)
VHH: EVQLVESGGGVVQPGGSLRLSCAASGFTFNNYAMKWVRQAPGKGLEWVSSITTGGGSTDYADSVKGRFTISRDNSKNTLYLQMNSLRPEDTALYYCANVPFGYYSEHFSGLSFDYRGQGTLVTVSS
notes: E. coli, IMAC; also called F0107004B06 (L11V, R74S, K83R, V89L)
Kd (human IL-13 [27]): 27 nM | koff (human IL-13 [27]): 0.0075 s⁻¹ | kon (human IL-13 [27]): 280000 M⁻¹ s⁻¹

B11: F027100019 (VHH)
VHH: DVQLVESGGGVVQPGGSLRLSCAASGRTFSSYRMGWFRQAPGKEREFVAALSGDGYSTYTANSVKGRFTISRDNSKNTVYLQMNSLRPEDTALYYCAAKLQYVSGWSYDYPYWGQGTLVTVSS
notes: Expressed in E. coli, purified by IMAC; also called F0107004B02 (E1D, L11V, A14P, N64K, S65G, A74S, K83R, I89L)
IC50 (nM) Eotaxin release assay (human IL-13 [28]): 47 nM | Kd (human IL-13 [29]): 34 nM | koff (human IL-13 [29]): 0.0012 s⁻¹ | kon (human IL-13 [29]): 35000 M⁻¹ s⁻¹
